Tests used:
[1] = biological target: dSpRY (catalytically inactive SpRY Cas9) (Streptococcus pyogenes) (UniProt Q99ZW2); test: EMSA; conditions: 40x plasmid competitor; 100 nM RNP, 10 nM DNA; EMSA: 20 mM HEPES pH 7.5, 100 mM KCl, 10 mM MgCl2, 1% glycerol, 0.5 mM DTT (37 C for plasmid EMSA); footprinting: 20 mM Tris pH 7.9, 24 mM KCl, 5 mM MgCl2 …
[2] = biological target: dSpRY (catalytically inactive SpRY Cas9) (Streptococcus pyogenes) (UniProt Q99ZW2); test: single-molecule AuRBT (baseline twist shift, Langmuir fit); conditions: effective Kd for off-target binding on the tether; RNP with sgRNA3; EMSA: 20 mM HEPES pH 7.5, 100 mM KCl, 10 mM MgCl2, 1% glycerol, 0.5 mM DTT (37 C for plasmid EMSA); footprinting: 20 mM Tris pH 7.9, 24 mM KCl, 5 mM MgCl2 …
[3] = biological target: dSpRY (catalytically inactive SpRY Cas9) (Streptococcus pyogenes) (UniProt Q99ZW2); test: single-molecule AuRBT (hyperbolic fit of kC-I vs [RNP]); conditions: EMSA: 20 mM HEPES pH 7.5, 100 mM KCl, 10 mM MgCl2, 1% glycerol, 0.5 mM DTT (37 C for plasmid EMSA); footprinting: 20 mM Tris pH 7.9, 24 mM KCl, 5 mM MgCl2 …
[4] = biological target: dCas9 (catalytically inactive SpyCas9) D10A;H840A (Streptococcus pyogenes) (UniProt Q99ZW2); test: single-molecule AuRBT (kC-I linear, no saturation); conditions: initial binding Kd,init; >1 uM proposed from literature; R-loop forms; EMSA: 20 mM HEPES pH 7.5, 100 mM KCl, 10 mM MgCl2, 1% glycerol, 0.5 mM DTT (37 C for plasmid EMSA); footprinting: 20 mM Tris pH 7.9, 24 mM KCl, 5 mM MgCl2 …

Sequence	binding signal [1] [% bound]	Kd [2] [nM]	Kd [3] [nM]	Kd [4] [nM]
GGGACGCAUAAAGAUGAGACAAGUUUUAGAGCUAGAAAUAGCAAGUUAAAAUAAGGCUAGUCCGUUAUCAACUUGAAAAAGUGGCACCGAGUCGGUGCUUCG / CGCTCATGCTGACGCATAAAGATGAGACAATGGCGATTACAGTACGTGCG / CGCACGTACTGTAATCGCCATTGTCTCATCTTTATGCGTCAGCATGAGCG [sgRNA2 + matched target duplex (0-20 bp)]	2			
GGCUGCGUAUUUCUACUCUGUUGUUUUAGAGCUAGAAAUAGCAAGUUAAAAUAAGGCUAGUCCGUUAUCAACUUGAAAAAGUGGCACCGAGUCGGUGCUUCG / GTCATTGTCGCGAAGTGCAGCGAGATCGCGTTTGTACTCCAAACAGAGTAGAAATACGCAGAGCAGCGATTTCTCGTGTGCAGACA / CGAAGCACCGACTCGGTGCCACTTTTTCAAGTTGATAACGGACTAGCCTTATTTTAACTTGCTATTTCTAGCTCTAAAACAACAGAGTAGAAATACGCAGCC [sgRNA3 + Target1 NGG DNA tether]		15	10	> 80
GGGACGCAUAAAGAUGAGACAAGUUUUAGAGCUAGAAAUAGCAAGUUAAAAUAAGGCUAGUCCGUUAUCAACUUGAAAAAGUGGCACCGAGUCGGUGCUUCG / CGCTCATGCTGACGCATAAAGATGAGAGTTTGGCGATTACAGTACGTGCG / CGCACGTACTGTAATCGCCATTGTCTCATCTTTATGCGTCAGCATGAGCG [sgRNA2 + target duplex with MM bubble next to PAM (3-20 bp)]	29			

— paper PMC12258621
